These results are taken from patent US20200216522A1 (DENALI THERAPEUTICS, published 2020).

Where a chain is given by its changes, count along the chain named.

Sequences and labels used below:
B1: Clone with H1_1 (antibody, V domains shown)
VH: EVQLLESGGGLVQPGGSLRLSCAASGFKFSRVGVSWVRQAPGKGLEWVASISGDGGSYIHYADSVKGRFTISRDNSKNTLYLQMNSLRAEDTAVYYCARLPYWGQGTLVTVSS
VL: DIVMTQSPDSLAVSLGERATINCKSSQSLLNSGNQKNYLTWYQQKPGQPPKLLIYWASTRESGVPDRFSGSGSGTDFTLTISSLQAEDVAVYYCQQYNSYPLTFGQGTKVEIKR
B2: Clone with L1_3 (antibody, V domains shown)
VH: B1 VH with K28T, R31S, V32Y, V34M
VL: DIVMTQSPDSLAVSLGERATINCKSSQSLHRSGTQKDYLVWYQQKPGQPPKLLIYWASTRESGVPDRFSGSGSGTDFTLTISSLQAEDVAVYYCQQYNSYPLTFGQGTKVEIK
notes: IgG based on hu1C7.v2
B3: Clone with H1_4 (antibody, V domains shown)
VH: B1 VH with K28R, R31G, V32P, V34M
VL: B1 VL
notes: IgG based on hu1C7.v2
B4: Clone with L1_3 and H1_4 (antibody, V domains shown)
VH: B1 VH with K28R, R31G, V32P, V34M
VL: B2 VL
notes: IgG based on hu1C7.v2
B5: Clone with H3_1 (antibody, V domains shown)
VH: B1 VH with K28T, R31S, V32Y, V34M, R99K, Y102F
VL: B1 VL
B6: Clone with H1_2 (antibody, V domains shown)
VH: B1 VH with K28T, V34T
VL: B1 VL
notes: IgG based on hu1C7.v2
B7: Clone with H1_5 (antibody, V domains shown)
VH: B1 VH with G26V, F27I, F29W, S30R, R31I, V32Y, V34M
VL: B1 VL
B8: Clone with L1_1 (antibody, V domains shown)
VH: B1 VH with K28T, R31S, V32Y, V34M
VL: B1 VL with Q27H, L30Y, N31S, G33R, N34R, Q35H, N37H, T40A
B9: Clone with L1_3 and H3_1 (antibody, V domains shown)
VH: B1 VH with K28T, R31S, V32Y, V34M, R99K, Y102F
VL: B2 VL
notes: IgG based on hu1C7.v2
B10: Clone with L1_3 and H1_1 (antibody, V domains shown)
VH: B1 VH
VL: B2 VL
notes: IgG based on hu1C7.v2
B11: Clone with L1_3-10 (antibody, V domains shown)
VH: B1 VH with K28T, R31S, V32Y, V34M
VL: B2 VL with D37N
notes: based on hu1C7.v2
B12: Clone with L1_3-8 (antibody, V domains shown)
VH: B1 VH with K28T, R31S, V32Y, V34M
VL: B2 VL with R31L
notes: based on hu1C7.v2
B13: Clone with L1_3-11 (antibody, V domains shown)
VH: B1 VH with K28T, R31S, V32Y, V34M
VL: B2 VL with V40A
notes: based on hu1C7.v2
B14: Clone with L3_5 (antibody, V domains shown)
VH: B1 VH with K28T, R31S, V32Y, V34M
VL: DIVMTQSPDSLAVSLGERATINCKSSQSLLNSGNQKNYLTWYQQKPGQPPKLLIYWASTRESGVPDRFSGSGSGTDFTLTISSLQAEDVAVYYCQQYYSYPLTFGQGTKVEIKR
notes: based on hu1C7.v2
B15: Clone with L1_6 (antibody, V domains shown)
VH: B1 VH with K28T, R31S, V32Y, V34M
VL: B1 VL with N31Q
notes: based on hu1C7.v2
B16: Clone with L1_3-4 (antibody, V domains shown)
VH: B1 VH with K28T, R31S, V32Y, V34M
VL: B2 VL with R31N
notes: based on hu1C7.v2
B17: Clone with L3_6 (antibody, V domains shown)
VH: B1 VH with K28T, R31S, V32Y, V34M
VL: B1 VL with N98S
notes: based on hu1C7.v2
B18: Clone with L1_7 (antibody, V domains shown)
VH: B1 VH with K28T, R31S, V32Y, V34M
VL: B1 VL with S32A
notes: based on hu1C7.v2
B19: Clone with L1_3, L3, and H1_HCv2 (antibody, V domains shown)
VH: B1 VH with K28T, R31Q, V34M
VL: B2 VL
B20: Clone with L1_3-9 (antibody, V domains shown)
VH: B1 VH with K28T, R31S, V32Y, V34M
VL: B2 VL with T34N
notes: based on hu1C7.v2
B21: Clone with L1_3-1 (antibody, V domains shown)
VH: B1 VH with K28T, R31S, V32Y, V34M
VL: B2 VL with H30V
notes: based on hu1C7.v2
B22: Clone with L3_7 (antibody, V domains shown)
VH: B1 VH with K28T, R31S, V32Y, V34M
VL: B1 VL with S99A
notes: based on hu1C7.v2
B23: Clone with L1_3-3 (antibody, V domains shown)
VH: B1 VH with K28T, R31S, V32Y, V34M
VL: B2 VL with R31Y
notes: based on hu1C7.v2
B24: Clone with L1_3-6 (antibody, V domains shown)
VH: B1 VH with K28T, R31S, V32Y, V34M
VL: B2 VL with R31Q
notes: based on hu1C7.v2
B25: Clone with L1_3-2 (antibody, V domains shown)
VH: B1 VH with K28T, R31S, V32Y, V34M
VL: B2 VL with H30L
notes: based on hu1C7.v2
B26: Clone with L1_3-7 (antibody, V domains shown)
VH: B1 VH with K28T, R31S, V32Y, V34M
VL: B2 VL with R31K
notes: based on hu1C7.v2
B27: Clone with L1_3-5 (antibody, V domains shown)
VH: B1 VH with K28T, R31S, V32Y, V34M
VL: B2 VL with R31M
notes: based on hu1C7.v2

T1 sequence (P10636 other isoform, or with tags, fused parts or gaps limits assumed): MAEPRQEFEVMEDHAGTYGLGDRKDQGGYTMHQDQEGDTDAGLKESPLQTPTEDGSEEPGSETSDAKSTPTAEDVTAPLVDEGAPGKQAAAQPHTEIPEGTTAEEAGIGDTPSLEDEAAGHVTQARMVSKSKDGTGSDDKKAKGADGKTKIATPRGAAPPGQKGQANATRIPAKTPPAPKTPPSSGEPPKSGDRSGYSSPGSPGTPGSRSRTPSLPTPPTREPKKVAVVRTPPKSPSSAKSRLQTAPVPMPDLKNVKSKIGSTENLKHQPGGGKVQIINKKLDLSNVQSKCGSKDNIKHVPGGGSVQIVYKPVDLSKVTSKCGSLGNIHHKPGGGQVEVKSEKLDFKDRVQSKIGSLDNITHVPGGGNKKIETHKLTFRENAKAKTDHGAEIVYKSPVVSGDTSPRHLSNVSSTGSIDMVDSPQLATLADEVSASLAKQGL

One assay concerns the target T1, full-length human Tau (Tau441; 2N4R), recombinant (human, UniProt P10636 1-758).
T1 construct: made in E. coli, His6-Smt3 tag removed; biotinylated through amines for Octet and phage work; also called r-Tau; recombinant Tau
The experiment in a line: SPR Biacore. For orientation: In SPR one partner is held on a chip, and binding of the other changes the refractive index at the surface.
A word on the Kd: it is the constant that tells how readily two partners part at equilibrium. In general, koff refers to the first-order rate constant of dissociation. One may read the kon as the rate constant with which the complex forms. In the case of B1, the dissociation constant (Kd) was found to be 0.122 nM, the dissociation rate constant (koff) was 0.000252 s⁻¹ and the kon worked out at 2.07e+06 M⁻¹ s⁻¹.

As to B2, the Kd came to 0.133 nM, the koff was 0.000286 s⁻¹ and the kon was found to be 2.15e+06 M⁻¹ s⁻¹.

For B3, the equilibrium dissociation constant (Kd) is 0.174 nM, the koff is 0.00023 s⁻¹ and the on-rate constant (kon) amounted to 1.32e+06 M⁻¹ s⁻¹.

Regarding B4, the Kd was found to be 0.038 nM, the koff is 8.72e-05 s⁻¹ and the kon was 2.28e+06 M⁻¹ s⁻¹.

In the case of B5, the dissociation constant Kd was 0.242 nM, the koff was found to be 0.000478 s⁻¹ and the kon was determined as 1.97e+06 M⁻¹ s⁻¹.

As to B6, the Kd came out at 0.092 nM, the koff stood at 0.000144 s⁻¹ and the kon stood at 1.56e+06 M⁻¹ s⁻¹.

Regarding B7, the Kd was found to be 0.183 nM, the dissociation rate constant (koff) was 0.000244 s⁻¹ and the kon amounted to 1.34e+06 M⁻¹ s⁻¹.

In the case of B8, the Kd came out at 0.192 nM, the koff came to 0.000297 s⁻¹ and the kon was determined as 1.54e+06 M⁻¹ s⁻¹.

On to B9, for which the dissociation constant Kd is 0.062 nM, the koff was determined as 0.000145 s⁻¹ and the kon was found to be 2.36e+06 M⁻¹ s⁻¹.

B10: the Kd came out at 0.069 nM, the off-rate constant (koff) came out at 0.000113 s⁻¹ and the on-rate (kon) was determined as 1.64e+06 M⁻¹ s⁻¹.

A further assay addresses T1, full-length human Tau (Tau441; 2N4R), …. The experiment in a line: SPR Biacore. This is another data set of the same source. On the procedure: IgG was purified with protein A affinity chromatography. The affinity of each hulC7 IgG variant for r-Tau was determined by surface plasmon resonance using a Biacore™ T200 instrument. Biacore™ Series S CM5 sensor chips were immobilized with monoclonal mouse anti-human IgG (Fc) antibody (Human antibody capture kit from GE Healthcare). Serial 3-fold dilutions of each hulC7 variant were injected at a flow rate of […]. Each sample was analyzed with 3-minute association and 10-minute dissociation. After each injection, the chip was regenerated using 3 M MgCl₂. Binding response was corrected by subtracting the RU from a flow cell capturing an irrelevant IgG at similar density. A 1:1 Languir model of simultaneous fitting of kₒₙ and koff was used for kinetics analysis.
A further round of affinity maturation was performed by mutating certain amino acids in selected CDR-H1, CDR-L1, and CDR-L3 sequences from Table 9A, as well as the sequence of CDR-H2 (SEQ ID NO:23) of hulC7.v2. Sequence changes were identified in each CDR (Table 9B). Binding affinities were evaluated using Biacore™ (Table 10B).
In the case of B2, the Kd came to 0.109 nM, the dissociation rate constant (koff) was determined as 0.000133 s⁻¹ and the on-rate (kon) was determined as 1.22e+06 M⁻¹ s⁻¹.

B3: the dissociation constant (Kd) came to 0.333 nM, the koff came out at 0.000188 s⁻¹ and the kon came to 564000 M⁻¹ s⁻¹.

B11: the Kd amounted to 0.157 nM, the koff was determined as 0.000147 s⁻¹ and the kon is 937000 M⁻¹ s⁻¹.

Consider B12, for which the dissociation constant Kd stood at 0.51 nM, the off-rate (koff) came out at 0.000391 s⁻¹ and the association rate constant (kon) was 767000 M⁻¹ s⁻¹.

For the molecule B13, the Kd came out at 0.231 nM, the dissociation rate constant (koff) was 0.000223 s⁻¹ and the kon came out at 965000 M⁻¹ s⁻¹.

Turning to B14, the Kd is 0.928 nM, the dissociation rate constant (koff) is 0.000787 s⁻¹ and the kon was 848000 M⁻¹ s⁻¹.

For B15, the equilibrium dissociation constant (Kd) amounted to 0.665 nM, the koff worked out at 0.00078 s⁻¹ and the kon was 1.17e+06 M⁻¹ s⁻¹.

In the case of B16, the Kd was determined as 0.206 nM, the dissociation rate constant (koff) was found to be 0.00031 s⁻¹ and the kon came out at 1.5e+06 M⁻¹ s⁻¹.

As to B6, the Kd worked out at 0.478 nM, the dissociation rate constant (koff) came to 0.000132 s⁻¹ and the association rate constant (kon) was 276000 M⁻¹ s⁻¹.

Take B17: the Kd stood at 0.69 nM, the koff turned out to be 0.00057 s⁻¹ and the kon stood at 826000 M⁻¹ s⁻¹.

Turning to B18, the dissociation constant Kd turned out to be 0.651 nM, the koff stood at 0.000719 s⁻¹ and the kon turned out to be 1.1e+06 M⁻¹ s⁻¹.

As for B19, the Kd stood at 0.119 nM, the off-rate (koff) came to 0.000116 s⁻¹ and the kon was 982000 M⁻¹ s⁻¹.

For B20, the Kd was found to be 0.136 nM, the koff came to 0.000154 s⁻¹ and the kon was 1.13e+06 M⁻¹ s⁻¹.

Consider B21, for which the equilibrium dissociation constant (Kd) was determined as 0.211 nM, the koff came out at 0.000213 s⁻¹ and the kon came out at 1.01e+06 M⁻¹ s⁻¹.

In the case of B22, the Kd was found to be 1.19 nM, the dissociation rate constant (koff) turned out to be 0.000817 s⁻¹ and the on-rate (kon) is 685000 M⁻¹ s⁻¹.

Take B23: the Kd stood at 0.078 nM, the koff worked out at 0.000214 s⁻¹ and the on-rate (kon) turned out to be 2.72e+06 M⁻¹ s⁻¹.

As to B24, the Kd is 0.349 nM, the koff was determined as 0.000379 s⁻¹ and the kon was found to be 1.09e+06 M⁻¹ s⁻¹.

For the molecule B25, the dissociation constant Kd turned out to be 0.13 nM, the koff was 0.000143 s⁻¹ and the kon is 1.1e+06 M⁻¹ s⁻¹.

On to B26, for which the Kd is 0.275 nM, the off-rate (koff) was found to be 0.000308 s⁻¹ and the kon is 1.12e+06 M⁻¹ s⁻¹.

In the case of B27, the Kd was found to be 0.419 nM, the koff worked out at 0.000442 s⁻¹ and the on-rate (kon) was found to be 1.05e+06 M⁻¹ s⁻¹.
